Reference: publication PMC11530598 (2024)

Target: T1, MAP1B LC-mScarlet (Mus musculus (Mouse), UniProt P14873)
T1 chain: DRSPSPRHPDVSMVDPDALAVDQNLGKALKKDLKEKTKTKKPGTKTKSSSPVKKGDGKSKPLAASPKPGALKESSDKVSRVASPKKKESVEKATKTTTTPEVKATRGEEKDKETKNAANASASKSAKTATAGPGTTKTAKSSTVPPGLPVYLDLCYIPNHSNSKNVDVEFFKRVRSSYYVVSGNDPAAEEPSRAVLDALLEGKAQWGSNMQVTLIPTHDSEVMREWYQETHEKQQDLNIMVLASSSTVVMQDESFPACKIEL
Assay: TIRF microscopy recruitment assay on microtubules; tested on taxol-stabilised microtubules

binding result: no binding
B1: sfGFP-MAP1B HC^1-532 (protein)
chain: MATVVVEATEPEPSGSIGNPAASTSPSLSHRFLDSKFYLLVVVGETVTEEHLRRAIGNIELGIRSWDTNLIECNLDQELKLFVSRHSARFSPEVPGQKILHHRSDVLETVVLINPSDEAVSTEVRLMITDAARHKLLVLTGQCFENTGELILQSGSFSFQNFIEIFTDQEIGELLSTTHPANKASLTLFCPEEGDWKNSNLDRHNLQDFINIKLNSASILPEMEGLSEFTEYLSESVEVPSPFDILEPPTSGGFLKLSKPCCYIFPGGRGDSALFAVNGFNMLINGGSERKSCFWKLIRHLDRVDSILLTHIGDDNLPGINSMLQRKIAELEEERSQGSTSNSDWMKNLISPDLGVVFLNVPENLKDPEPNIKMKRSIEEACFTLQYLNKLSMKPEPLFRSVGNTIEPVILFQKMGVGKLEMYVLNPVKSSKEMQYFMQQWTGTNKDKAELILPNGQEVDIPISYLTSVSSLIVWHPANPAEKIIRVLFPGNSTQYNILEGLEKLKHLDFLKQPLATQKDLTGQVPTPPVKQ
